Source: PMC5741625, “Methylation-regulated decommissioning of multimeric PP2A complexes” (Nature Communications, 2017)
One block for each molecule: values may come before it.

Legend:
[1] = biological target: PP2A scaffold subunit (Homo sapiens) (UniProt P30153); settings: cited from earlier work
[2] = biological target: GST-tagged methylated PP2A core enzyme (GST-Aα bound to carboxyl-methylated Cα) (human, UniProt P30153 8-589; P67775 1-309, carboxyl-methylated C-terminus (L309, the last residue of PP2Ac)); test: cell-based or functional assay
Chain of GST-tagged methylated PP2A core enzyme (GST-Aα bound to carboxyl-methylated Cα) (P30153 8-589, chain 1 of 2): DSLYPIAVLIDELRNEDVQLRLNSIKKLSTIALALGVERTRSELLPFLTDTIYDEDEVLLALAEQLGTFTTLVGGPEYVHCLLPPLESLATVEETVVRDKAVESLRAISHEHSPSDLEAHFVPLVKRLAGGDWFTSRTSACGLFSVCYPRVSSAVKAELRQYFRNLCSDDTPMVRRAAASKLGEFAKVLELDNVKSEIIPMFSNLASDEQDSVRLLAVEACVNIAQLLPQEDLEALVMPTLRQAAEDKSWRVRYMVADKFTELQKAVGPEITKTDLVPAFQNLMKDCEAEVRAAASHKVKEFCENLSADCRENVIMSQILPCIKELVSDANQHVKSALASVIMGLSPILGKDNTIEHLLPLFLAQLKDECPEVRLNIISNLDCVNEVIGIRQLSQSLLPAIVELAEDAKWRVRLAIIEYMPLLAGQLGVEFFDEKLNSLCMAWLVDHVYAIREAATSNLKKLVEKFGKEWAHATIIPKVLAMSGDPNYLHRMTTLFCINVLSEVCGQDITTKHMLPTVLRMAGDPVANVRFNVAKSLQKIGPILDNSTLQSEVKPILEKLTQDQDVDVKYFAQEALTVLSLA
Chain of GST-tagged methylated PP2A core enzyme (GST-Aα bound to carboxyl-methylated Cα) (P67775 whole entry, chain 2 of 2): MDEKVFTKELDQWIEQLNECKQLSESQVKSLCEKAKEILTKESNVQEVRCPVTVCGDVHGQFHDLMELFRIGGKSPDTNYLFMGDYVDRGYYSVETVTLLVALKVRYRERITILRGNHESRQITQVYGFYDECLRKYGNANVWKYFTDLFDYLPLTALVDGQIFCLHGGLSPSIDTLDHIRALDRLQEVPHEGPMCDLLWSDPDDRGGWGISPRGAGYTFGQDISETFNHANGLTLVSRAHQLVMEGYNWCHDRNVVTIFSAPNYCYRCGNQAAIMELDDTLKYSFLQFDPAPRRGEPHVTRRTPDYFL

[3] = biological target: T1, PP2A catalytic subunit Cα (1-309) (human, UniProt P67775 1-309); test: not stated; Supplementary Fig. 6; TIPRL with PP2Ac or the scaffold subunit alone; settings: both partners purified
T1 construct: source: Hi-5 insect cells (baculovirus), purified (Ni-NTA, Source 15Q)
T1 sequence (P67775 whole entry): as the sequence (P67775 whole entry, chain 2 of 2) above

[4] = biological target: T2, PP2A scaffold subunit (Aα) alone, as tested against TIPRL in Supplementary Fig. 6b (human, UniProt P30153 8-589); test: as above; settings: both partners purified
T2 construct: PP2A scaffold subunit Aα, human; Aα (8-589) is named for biochemical experiments; source: E. coli BL21(DE3), purified (glutathione resin, Source 15Q)
T2 sequence (P30153 8-589): as the sequence (P30153 8-589, chain 1 of 2) above

[5] = biological target: T3, GST-tagged unmethylated PP2A core enzyme (GST-Aα bound to Cα) (human, UniProt P30153 8-589; P67775 1-309); test: BLI + pull-down; BLI: anti-GST sensors loaded with 150 nM GST-PP2A-AC dimer, TIPRL 0-30 μM, 300 s association and 300 s dissociation, 1:1 model; pull-down of titrated TIPRL by GST-tagged core enzyme on GS4B; settings: both partners purified
T3 construct: PP2A scaffold subunit Aα, human, residues 8-589; The methods also speak of full-length Aα in pGEX-2T; also called GST-PP2A core enzyme; GST-PP2A-AC dimer; source: GST-Aα: E. coli BL21(DE3), purified (glutathione resin, Source 15Q); Cα: Hi-5 insect cells (baculovirus), purified (Ni-NTA, Source 15Q)
T3 sequence (P30153 8-589, chain 1 of 2): as above
T3 sequence (P67775 whole entry, chain 2 of 2, the tested form may be a part): as the sequence (P67775 whole entry, chain 2 of 2) above

[6] = biological target: T4, PP2A core enzyme (Aα 8-589 and Cα 1-309) as crystallized with TIPRL (human, UniProt P30153 8-589; P67775 1-309, selenomethionine-labeled); test: crystal structure; PP2A-TIPRL complex, sitting drop, 18 °C, 0.1 M citric acid pH 5.2, 9% PEG 4000, 0.2 M sodium acetate; 3.8 Å; four copies in the asymmetric unit; settings: both partners purified
T4 construct: PP2A scaffold subunit Aα, human, residues 8-589; also called PP2A AC dimer; source: Aα: E. coli BL21(DE3); Cα: Hi-5 insect cells; assembled on glutathione resin, released by on-column thrombin cleavage, purified by ion exchange
T4 sequence (P30153 8-589, chain 1 of 2): as the sequence (P30153 8-589, chain 1 of 2) above
T4 sequence (P67775 whole entry, chain 2 of 2, the tested form may be a part): as the sequence (P67775 whole entry, chain 2 of 2) above

[7] = biological target: T5, PP2A scaffold subunit Aα (8-589), as in the crystal of the PP2A-TIPRL complex (human, UniProt P30153 8-589, selenomethionine-labeled); test: as above; settings: both partners purified
T5 construct: PP2A scaffold subunit Aα, human, residues 8-589; also called PP2A-A; A subunit; source: E. coli BL21(DE3), purified; GST removed by thrombin
T5 sequence (P30153 8-589, one chain of several): as the sequence (P30153 8-589, chain 1 of 2) above

[8] = biological target: T1, PP2A catalytic subunit Cα (1-309); test: as above; settings: both partners purified

Chain of PP2A scaffold subunit (Homo sapiens) (P30153 2-589): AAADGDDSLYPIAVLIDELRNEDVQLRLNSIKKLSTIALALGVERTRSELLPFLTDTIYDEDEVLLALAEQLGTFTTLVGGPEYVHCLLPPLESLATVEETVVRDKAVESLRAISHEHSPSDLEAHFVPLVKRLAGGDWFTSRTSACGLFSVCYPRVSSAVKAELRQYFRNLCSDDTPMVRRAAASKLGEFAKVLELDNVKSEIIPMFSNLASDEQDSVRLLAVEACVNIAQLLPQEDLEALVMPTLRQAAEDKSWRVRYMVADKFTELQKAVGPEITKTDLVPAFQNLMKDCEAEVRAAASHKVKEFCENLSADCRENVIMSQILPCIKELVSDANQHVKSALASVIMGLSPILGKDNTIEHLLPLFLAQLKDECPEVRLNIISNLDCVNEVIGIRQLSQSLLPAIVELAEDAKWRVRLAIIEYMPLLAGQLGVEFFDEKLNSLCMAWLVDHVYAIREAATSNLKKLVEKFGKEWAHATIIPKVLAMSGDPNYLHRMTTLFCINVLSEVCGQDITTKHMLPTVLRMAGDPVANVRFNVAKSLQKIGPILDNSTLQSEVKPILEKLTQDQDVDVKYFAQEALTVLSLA

Molecule: PP2Ac (from UniProt P67775)
Kd [1]: 5 nM

fold increase of the IC50 of TIPRL for phosphatase activity upon carboxylmethylation of the PP2A core enzyme [2]: ~30 fold | Kd [3]: ~600 nM | Kd [4]: ~10000 nM | Kd [5]: ~310 nM
B1: TIPRL (TOR signaling pathway regulator), full length, wild type (natural protein, UniProt Q8BH58 1-271, looked up)
chain: MMIHGFQSSHQDFSFGPWKLTASKTHIMKSADVEKLADELHMPSLPEMMFGDNVLRIQHGSGFGIEFNATDALRCVNNYQGMLKVACAEEWQESRTEGEHSKEVIKPYDWTYTTDYKGTLLGESLKLKVVPTTDHIDTEKLKAREQIKFFEEVLLFEDELHDHGVSSLSVKIRVMPSSFFLLLRFFLRIDGVLIRMNDTRLYHEADKTYMLREYTSRESKIANLMHVPPSLFTEPNEISQYLPIKEAVCEKLVFPERIDPNPVDSQSTPSE
notes: TIPRL, full length, for biochemical experiments; Cloned into pQLinkH; His6-tag removed by TEV protease; also called WT TIPRL; source: E. coli BL21 (DE3), purified (Ni-NTA, Source 15Q, Superdex 200)

binding result [6]: binds | binding result [7]: binds | binding result [8]: binds
B2: mouse TIPRL (12-259) (domain or fragment, UniProt Q8BH58 12-259, looked up)
chain: DFSFGPWKLTASKTHIMKSADVEKLADELHMPSLPEMMFGDNVLRIQHGSGFGIEFNATDALRCVNNYQGMLKVACAEEWQESRTEGEHSKEVIKPYDWTYTTDYKGTLLGESLKLKVVPTTDHIDTEKLKAREQIKFFEEVLLFEDELHDHGVSSLSVKIRVMPSSFFLLLRFFLRIDGVLIRMNDTRLYHEADKTYMLREYTSRESKIANLMHVPPSLFTEPNEISQYLPIKEAVCEKLVFPERID
notes: TIPRL, mouse, residues 12-259; also called native TIPRL (12-259); source: E. coli BL21 (DE3), purified (Ni-NTA, Source 15Q, Superdex 200)
